Source: PMC7616283 (Nature cardiovascular research, 2024)
Read-outs that look alike come from different tables or passages of the source.

B1: biotinylated human recombinant CCL17 (ligand, UniProt Q92583 24-94, looked up)
chain: ARGTNVGRECCLEYFKGAIPLRKLKTWYQTSEDCSRDAIVFVTVQGRAICSDPNNKRVKNAVKYLQSLERS
modifications: biotin (biotinylated; site not stated)
B2: unlabeled human recombinant CCL17 (ligand, UniProt Q92583 24-94, looked up)
chain: B1 chain
B3: unlabeled human recombinant CCL1 (ligand, UniProt P22362 24-96, looked up)
chain: KSMQVPFSRCCFSFAEQEIPLRAILCYRNTSSICSNEGLIFKLKRGKEACALDTVGWVQRHRKMLRHCPSKRK

Assays:
[1] = molecular target: T1, human CCR8 carried on proteoliposomes (human, UniProt P51685 1-355); experiment: SPR
[2] = molecular target: T2, human CCR4 carried on liposomes (human, UniProt P51679 1-360); experiment: SPR
T2 sequence (looked up): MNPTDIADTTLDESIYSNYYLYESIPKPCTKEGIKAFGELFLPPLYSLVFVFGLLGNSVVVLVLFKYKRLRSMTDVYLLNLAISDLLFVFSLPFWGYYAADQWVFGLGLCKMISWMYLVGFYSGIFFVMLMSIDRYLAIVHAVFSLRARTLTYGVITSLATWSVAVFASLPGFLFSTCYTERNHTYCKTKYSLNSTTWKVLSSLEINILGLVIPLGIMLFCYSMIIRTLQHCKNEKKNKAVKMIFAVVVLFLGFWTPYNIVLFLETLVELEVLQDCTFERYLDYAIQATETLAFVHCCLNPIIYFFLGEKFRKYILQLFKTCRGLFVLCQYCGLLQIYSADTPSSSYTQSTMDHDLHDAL

[3] = molecular target: T1, human CCR8 carried on proteoliposomes; experiment: SPR; remark: listed apart in the source
[4] = molecular target: T3, human CCR8 (HA-tagged) on stably transfected HEK293 cells (human, UniProt P51685 1-355); experiment: flow cytometry on cells
[5] = molecular target: T3, human CCR8 (HA-tagged) on stably …; experiment: flow cytometry on cells; remark: listed apart in the source

| Binder | Kd [1] | binding result [2] | Kd [3] | koff [3] | IC50 [4] | IC50 [5] |
| --- | --- | --- | --- | --- | --- | --- |
| B1 | 11.7 nM | binds | 1.1 ± 0.4 nM | 0.00042 s⁻¹ |  |  |
| B2 |  |  |  |  | 4.9 nM | 9.4 nM |
| B3 |  |  |  |  | 0.58 nM |  |
